{"source": "paper PMC3897609", "about": "“Heparanase Interacts with Resistin and Augments Its Activity” (PLoS ONE, 2014)", "molecular_target": "T1, cMyc-tagged 65-kDa latent heparanase (human, UniProt Q9Y251 36-543)", "T1 construct": "heparanase, human, 65-kDa latent (unprocessed) form; also called cMyc-latent heparanase; latent cMyc-heparanase; source: medium conditioned by heparanase infected CHO cells, purified (heparin column)", "T1 sequence (looked up)": "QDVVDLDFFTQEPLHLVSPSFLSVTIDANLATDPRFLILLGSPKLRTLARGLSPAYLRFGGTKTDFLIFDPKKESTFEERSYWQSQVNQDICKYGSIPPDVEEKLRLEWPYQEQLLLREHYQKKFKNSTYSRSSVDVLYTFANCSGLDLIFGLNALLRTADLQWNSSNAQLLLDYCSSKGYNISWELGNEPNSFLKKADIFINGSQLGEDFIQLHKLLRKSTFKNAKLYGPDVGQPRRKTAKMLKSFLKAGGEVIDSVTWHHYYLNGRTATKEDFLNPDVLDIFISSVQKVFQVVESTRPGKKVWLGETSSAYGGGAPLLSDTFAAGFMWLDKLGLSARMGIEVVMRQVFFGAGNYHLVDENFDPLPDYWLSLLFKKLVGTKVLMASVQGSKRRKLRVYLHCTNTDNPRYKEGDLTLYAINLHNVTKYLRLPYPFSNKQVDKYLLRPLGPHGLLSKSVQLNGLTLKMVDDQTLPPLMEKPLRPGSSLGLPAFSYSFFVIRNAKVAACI", "experiment": "ELISA; competition: cMyc latent heparanase as coating layer; analyte resistin (200 ng/ml) preincubated 30 min at RT with the competitor (active heparanase, or leptin as control); bound resistin detected by anti resistin antibodies", "settings": "both partners purified", "data": [{"binder": "human recombinant resistin expressed in HEK 293 (natural protein, UniProt Q9HD89 19-108, looked up, resistin, human, recombinant; Runs as a 12 kDa band under reducing conditions; also called RETN; source: HEK 293, pure preparation, gift from Serono) KTLCSMEEAINERIQEVAGSLIFRAISSIGLECQSVTSRGDLATCPRGFAVTGCTCGSACGSWDVRAETTCHCQCAGMDWTGARCCRVQP", "values": [{"measurement": "binding result", "value": "binds"}]}]}
